Results on 32 molecules are retold here after patent US20110008375A1, “Uses of Myostatin Antagonists” (AMGEN INC., priority 2005, published 2011).

First the molecules themselves.
B1: 2x mTN8-19-7: affinity matured 2× peptibody (two peptides in tandem), TN8-19 family, human Fc (protein)
chain: GGGGGAQLADHGQCIRWPWMCPPEGWELEGSGSATGGSGSTASSGSGSATGLADHGQCIRWPWMCPPEGWELE
modifications: Peptibody
B2: ActRIIB/Fc: soluble receptor fusion protein actRIIB/Fc (R&D Systems), recombinant human activin receptor IIB/Fc chimera (protein)
chain: SGRGEAETRECIYYNANWELERTNQSGLERCEGEQDKRLHCYASWRNSSGTIELVKKGCWLDDFNCYDRQECVATEENPQVYFCCCEGNFCNERFTHLPEAGGPEVTYEPPPTAPT
modifications: left off: a dimerising Fc or GST
B3: 2xmTN8-19-21 (protein)
chain: GGGGGAQSEYQGLCTRWPWMCPPQGWKLEGSGSATGGSGSTASSGSGSATGSEYQGLCTRWPWMCPPQGWKLE
modifications: Peptibody
B4: 2xmTN8-19-22 (protein)
chain: GGGGGAQTFSQGHCTRWPWMCPPQGWGLEGSGSATGGSGSTASSGSGSATGTFSQGHCTRWPWMCPPQGWGLE
modifications: Peptibody
B5: 2xmTN8-19-7 (protein)
chain: B1 chain
modifications: Peptibody
B6: 2x mTN8-19-33: affinity matured 2× peptibody of the TN8-19 family, human Fc (protein)
chain: B4 chain with T8P, F9E, T52P, F53E
modifications: Peptibody
B7: 2×mTN8-19-22: affinity matured 2× peptibody of the TN8-19 family, human Fc (protein)
chain: B4 chain

Positions count from the first letter of the chain named.

The test system of the first data set is CD1 nu/nu mice. Briefly: In vivo anabolic activity in CD1 nu/nu mouse model. The conditions noted are these: CD1 nu/nu male mice; 1 and 3 mg/kg twice weekly, 35 days; 2× vs 1× peptibody or control. From the text:
The CD1 nu/nu mouse model (Charles River Laboratories, Massachusettes) was used to determine the in vivo efficacy of the peptibodies of the present invention which included the human Fc region (huFc). This model responded to the inhibitors of the present invention with a rapid anabolic response which was associated with increased dry muscle mass and an increase in myofibrillar proteins but was not associated with accumulation in body water content.
A group of 10 8 week old CD1 nu/nu mice were treated twice weekly or once weekly with dosages of 1 mg/kg, 3 mg/kg and 10 mg/kg (subcutaneous injection). The control group of 10 8 week old CD1 nu/nu mice received a twice weekly (subcutaneous) injection of huFc (vehicle) at 10 mg/kg. The animals were weighed every other day and lean body mass determined by NMR on day 0 and day 13. The animals are then sacrificed at day 14 and the size of the gastrocnemius muscle determined.
In another example, the 1×mTN8-19-32 peptibody was administered to CD1 nu/nu mice in a biweekly injection of 1 mg/kg, 3 mg/kg, 10 mg/kg, and 30 mg/kg compared with the huFc control (vehicle).
CD1 nu/nu male mice (10 animals per group) were treated with twice weekly injections of 1 mg/kg and 3 mg/kg of 1×mTN8-19-7 and 2×mTN8-19-7 for 35 days, while the control group (10 animals) received twice weekly injections of huFc (3 mg/kg).
With B1, the “body weight gain (FIG. 5)” value was “greater body weight gain” and the “lean carcass weight at necropsy (FIG. 5)” value is listed as “greater”.

Another data set deals with T1, myostatin (Homo sapiens, UniProt O14793).
T1 construct: To produce mature myostatin, the pooled promyostatin was enzymatically cleaved between the propeptide and mature myostatin C terminal; made in house; host or cells: E. coli K-12 strain 2596 (ATCC # 202174)
T1 sequence (O14793 267-375): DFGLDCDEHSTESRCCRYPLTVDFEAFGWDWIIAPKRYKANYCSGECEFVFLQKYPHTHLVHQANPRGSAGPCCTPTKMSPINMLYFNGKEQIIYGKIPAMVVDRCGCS
Kind of data set: BIAcore affinity analysis on immobilized myostatin. As to conditions: Biacore assay; Table III. The format is binding. On the procedure: An affinity analysis of each candidate myostatin peptibody was performed on a BIAcore®3000 (Biacore, Inc., Piscataway, N.J.), apparatus using sensor chip CM5, and 0.005 percent P20 surfactant (Biacore, Inc.) as running buffer.
Direct binding assays were used to screen and rank the peptibodies in order of their ability to bind to immobilized myostatin. Binding assays were carried by injection of two concentrations (40 and 400 nM) of each candidate myostatin-binding peptibody to the immobilized myostatin surface at a flow rate of 50 μl/min for 3 minutes. After a dissociation time of 3 minutes, the surface was regenerated. Binding curves were compared qualitatively for binding signal intensity, as well as for dissociation rates. Peptibody binding kinetic parameters including ka (association rate constant), kd (dissociation rate constant) and KD (dissociation equilibrium constant) were determined using the BIA evaluation 3.1 computer program (Biacore, Inc.). The lower the dissociation equilibrium constants (expressed in nM), the greater the affinity of the peptibody for myostatin.
As for B2, the Kd was around 7 nM.

Another data set addresses T1, myostatin. Kind of data set: C2C12 pMARE-luc cell based myostatin activity assay.
Details: not given
From the text: A myostatin-responsive reporter cell line was generated by transfection of C2C12 myoblast cells (ATCC No: CRL-1772) with a pMARE-luc construct. The pMARE-luc construct was made by cloning twelve repeats of the CAGA sequence, representing the myostatin/activin response elements (Dennler et al. EMBO 17: 3091-3100 (1998)) into a pLuc-MCS reporter vector (Stratagene cat #219087) upstream of the TATA box. The myoblast C2C12 cells naturally express myostatin/activin receptors on its cell surface. When myostatin binds the cell receptors, the Smad pathway is activated, and phosphorylated Smad binds to the response element (Macias-Silva et al. Cell 87:1215 (1996)), resulting in the expression of the lucerase gene. Luciferase activity is then measured using a commercial luciferase reporter assay kit (cat #E4550, Promega, Madison, Wis.) according to manufacturer's protocol. A stable line of C2C12 cells that had been transfected with pMARE-luc (C2C12/pMARE clone #44) was used to measure myostatin activity according to the following procedure.
Equal numbers of the reporter cells (C2C12/pMARE clone #44) were plated into 96 well cultures. A first round screening using two dilutions of peptibodies was performed with the myostatin concentration fixed at 4 nM. Recombinant mature myostatin was pre-incubated for 2 hours at room temperature with peptibodies at 40 nM and 400 nM respectively. The reporter cell culture was treated with the myostatin with or without peptibodies for six hours. Myostatin activity was measured by determining the luciferase activity in the treated cultures. This assay was used to initially identify peptibody hits that inhibited the myostatin signaling activity in the reporter assay. Subsequently, a nine point titration curve was generated with the myostatin concentration fixed at 4 nM. The myostatin was preincubated with each of the following nine concentrations of peptibodies: […], 0.4 nM, 4 nM, 20 nM, 40 nM, 200 nM, 400 nM, 2 uM and 4 uM for two hours before adding the mixture to the reporter cell culture. The IC50 values were for a number of exemplary peptibodies are provided in Tables III and for affinity matured peptibodies, in Table VIII.
As for “L2: peptibody: peptide MEMLDSLFELLKDMVPISKA fused to human IgG1 Fc”, the “inhibition of myostatin activity in cell-based assay” value is recorded as “inhibit myostatin activity”.

Staying with this data set, now noted: affinity matured peptibodies; a range of values is given.
The molecule mTN8-19-24 (VAEEWHCRRWPWMCPPQDWR) displayed an IC50 of 1.67 to 2.93 nM.

As to mL15-7 (QVDSLQQVLLWLEHKLALGPQV), the IC50 was found to be 32.8 nM.

In the case of mTN8-19-27 (ADTQGHCTRWPWMCPPQHWF), the IC50 lay within 4.84 to 4.92 nM.

Molecule mTN8-19-34 (IPAHGHCTRWPWMCPPQRWR) came in with an IC50 of 5.03 to 5.07 nM.

Molecule mTN8-19-28 (SGPQGHCTRWPWMCAPQGWF) registered an IC50 of 4.39 nM.

Take mL20-2 (TQRDMSMLDGLLEVLDQLRQQR): half-maximal inhibition (IC50) was put at 123 nM.

With mL20-4 (MQHDMSMLYGLVELLESLGHQI), the IC50 was determined as 160 nM.

In turn, mTN8-19-14 (EFTQWHCTRWPWMCPPQRSQ) displayed an IC50 of 4.07 to 6.56 nM.

mTN8-19-5 (AGAQEHCTRWPWMCAPNDWI): the IC50 lay within 3.5 to 7.74 nM.

mTN8-19-12 (SYWQGQCTRWPWMCPPQWRG): the IC50 was 980 nM. This lies in the sub-micromolar range.

Consider mTN8-19-2 (YPEQGLCTRWPWMCPPQTLA), for which the IC50 was 7.51 to 34.4 nM.

Molecule mL15-9 (QIEMLESLLDLLRDMVPMSNAF) gave an IC50 of 354 nM. This counts as sub-micromolar.

On to mTN8-19-6 (GVNQGQCTRWRWMCPPNGWE), for which the half-maximal inhibitory concentration (IC50) is 17.3 nM.

For mTN8-19-29 (TLVQGHCTRWPWMCPPQRWV), half-maximal inhibition (IC50) required 6.36 nM. This IC50 is about 2.7-fold lower than that of the molecule before.

mTN8-19-4 (MITQGQCTRWPWMCPPQPSG): the IC50 was found to be 16.7 nM.

Take mTN8-19-16 (YQTQGLCTRWPWMCPPQSQR): the IC50 worked out at 4.65 nM.

mTN8-19-9 (TQTHAQCTRWPWMCPPQWEG): the IC50 was 18.8 to 23 nM.

mTN8-19-13 (MWQQGHCTRWPWMCPPQGWG) displayed an IC50 of 20 nM.

On to mTN8-19-23 (PGAHDHCTRWPWMCPPQSRY), for which the IC50 stood at 6.58 nM.

With mTN8-19-11 (IYPHDQCTRWPWMCPPQPYP), half-maximal inhibition (IC50) was put at 28.7 nM. Against the preceding molecule, the IC50 is about 4.4-fold higher.

For the molecule mL20-3 (TSRDMSLLWELLEELDRLGHQR), the IC50 was found to be 158 nM. Compared with the last molecule, the IC50 is about 5.5-fold higher.

With mTN8-19-10 (VVTQGHCTLWPWMCPPQRWR), the IC50 fell in the range of 5.25 to 7.4 nM.

As to B3, the IC50 lay in the range of 0.828 to 1.43 nM.

Molecule B4 showed an IC50 of 0.994 to 1.22 nM.

On to B5, for which the IC50 lay in the range of 0.857 to 2.65 nM.

The data set is the same for the next values; noted with them: pMARE luc cell-based assay; Table III.
“TN12-34: peptibody: peptide AHWCEQGPWRYGNICMAY fused to human IgG1 Fc” showed an IC50 of around 30 nM.

Molecule “Linear-20: peptibody: peptide YREMSMLEGLLDVLERLQHY fused to human IgG1 Fc” had an IC50 of around 11 nM.

Another data set relates to C57B1/6 mice. Briefly: Gripping strength in normal C57B1/6 mice. The format is in vivo, mouse. The conditions noted are these: 30 days s.c. 5 mg/kg per week, measured day 18 of recovery. How it is done: The animals were allowed to recover without any further injections. Gripping strength was measured on day 18 of the recovery period. Griping strength was measured using a Columbia Instruments meter, model 1027 dsm (Columbus, Ohio).
On to B6, for which the “increase in gripping strength compared with control-treated mice” value worked out at 14%.

As for B1, the “increase in gripping strength compared with control-treated mice” value was found to be 15%.

System in the next data set: not listed separately
Kind of data set: In vivo pharmacokinetics in CD1 nu/nu mice. Details: species or system mouse. The conditions noted are these: peptibodies without LE sequences, 10 mg/kg and 5 mg/kg. How it is done: In vivo pharmacokinetics experiments were performed using representative peptibodies without the LE sequences. 10 mg/kg and 5 mg/kg dosages were administered to CD1 nu/nu mice and the following parameters determined. Cmax (ug/mL), area under the curve (AUC) (ug-hr/mL), and half-life (hr).
Take B7: the half-life entry is “about 85.2 hours”.

On to B1, for which the half-life entry is on record as “about 106 hours”.
